Experimental findings from patent US20200087373A1 (UNIVERSITY OF COPENHAGEN, published 2020) are described below.

Ends that are not written are not given here. * marks the point of attachment. C16 diacid = O=C(O)CCCCCCCCCCCCCCC(=O)*

Assay [1] deals with T1, human GIP receptor (human, UniProt P48546 22-466).
T1 sequence (looked up): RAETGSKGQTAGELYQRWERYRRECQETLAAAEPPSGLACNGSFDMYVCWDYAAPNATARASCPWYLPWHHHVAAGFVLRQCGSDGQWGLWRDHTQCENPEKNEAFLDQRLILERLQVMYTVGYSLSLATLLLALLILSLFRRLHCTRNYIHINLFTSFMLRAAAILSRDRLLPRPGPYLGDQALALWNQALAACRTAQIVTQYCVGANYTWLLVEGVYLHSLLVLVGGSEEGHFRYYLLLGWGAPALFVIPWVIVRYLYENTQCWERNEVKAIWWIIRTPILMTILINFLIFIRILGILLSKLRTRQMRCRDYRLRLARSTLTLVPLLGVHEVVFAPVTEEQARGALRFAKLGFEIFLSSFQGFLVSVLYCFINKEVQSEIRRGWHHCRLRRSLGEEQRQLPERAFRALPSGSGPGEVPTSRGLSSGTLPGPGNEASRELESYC
Put plainly: cell-based or functional assay.

The target of assay [2] is T1, human GIP receptor. Description: 125I-hGIP competition binding, COS-7/hGIPR, 2% HSA.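 Note: nonspecific binding defined as radioligand binding to untransfected cells.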
Protocol: (§1) After incubation, the cells were washed twice in ice-cold binding buffer (+/−2% HSA) and lysed using 200 mM NaOH with 1% SDS for 30 min. Nonspecific binding was determined as the binding of radioactive ligand to untransfected cells.
The target in assay [3] is T1, human GIP receptor. Description: 125I-hGIP competition binding, COS-7/hGIPR, 0.1% casein.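 Note: nonspecific binding defined as radioligand binding measured on untransfected cells.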
Protocol: as §1
The target of assay [4] is T1, human GIP receptor. Put plainly: 125I-hGIP competition binding, COS-7 cells expressing hGIPR.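 Note: nonspecific binding taken as radioligand bound by untransfected cells, binding buffer with or without 2% HSA.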
Protocol: as §1
Assay [5] concerns the target T1, human GIP receptor. Put plainly: IC50 with 2% HSA over IC50 with 0.1% casein, 125I-hGIP competition, COS-7/hGIPR.
Protocol: as §1

B1: AT178 [hGIP(5-30)NH2[I17K]-C16diacid/17] (peptide)
peptide: TFISDYSIAMDKK(C16 diacid)HQQDFVNWLLAQK-NH2
modifications: N-terminus assumed
SMILES: CC[C@H](C)[C@H](NC(=O)[C@H](CO)NC(=O)[C@H](Cc1ccc(O)cc1)NC(=O)[C@H](CC(=O)O)NC(=O)[C@H](CO)NC(=O)[C@@H](NC(=O)[C@H](Cc1ccccc1)NC(=O)[C@@H](N)[C@@H](C)O)[C@@H](C)CC)C(=O)N[C@@H](C)C(=O)N[C@@H](CCSC)C(=O)N[C@@H](CC(=O)O)C(=O)N[C@@H](CCCCN)C(=O)N[C@@H](CCCCNC(=O)CCCCCCCCCCCCCCC(=O)O)C(=O)N[C@@H](Cc1c[nH]cn1)C(=O)N[C@@H](CCC(N)=O)C(=O)N[C@@H](CCC(N)=O)C(=O)N[C@@H](CC(=O)O)C(=O)N[C@@H](Cc1ccccc1)C(=O)N[C@H](C(=O)N[C@@H](CC(N)=O)C(=O)N[C@@H](Cc1c[nH]c2ccccc12)C(=O)N[C@@H](CC(C)C)C(=O)N[C@@H](CC(C)C)C(=O)N[C@@H](C)C(=O)N[C@@H](CCC(N)=O)C(=O)N[C@@H](CCCCN)C(N)=O)C(C)C
Consider B1, for which, in the assay with human GIP receptor [1], the “cAMP agonism, Emax” value turned out to be 0; the “cAMP antagonism” value came to 33 nM; the “cAMP antagonism, log” value is -7.5 log M. In the assay with human GIP receptor [2], this molecule gave an IC50 of 195 nM and a logIC50 of -6.7 log M. In the assay with human GIP receptor [3], this molecule gave an IC50 of 66.1 nM and a logIC50 of -7.2 log M. In the assay with human GIP receptor [4], the IC50 was found to be 66 nM and the “log IC50” value was -7.2 log M. For the same molecule, the “Fold change HSA (2%)/Casein (0.1%)” value with human GIP receptor [5] was determined as 3 fold.

B2: AT182 [hGIP(5-30)NH2[F22K]-C16diacid/22] (peptide)
peptide: TFISDYSIAMDKIHQQDK(C16 diacid)VNWLLAQK-NH2
modifications: N-terminus assumed
SMILES: CC[C@H](C)[C@H](NC(=O)[C@H](CO)NC(=O)[C@H](Cc1ccc(O)cc1)NC(=O)[C@H](CC(=O)O)NC(=O)[C@H](CO)NC(=O)[C@@H](NC(=O)[C@H](Cc1ccccc1)NC(=O)[C@@H](N)[C@@H](C)O)[C@@H](C)CC)C(=O)N[C@@H](C)C(=O)N[C@@H](CCSC)C(=O)N[C@@H](CC(=O)O)C(=O)N[C@@H](CCCCN)C(=O)N[C@H](C(=O)N[C@@H](Cc1c[nH]cn1)C(=O)N[C@@H](CCC(N)=O)C(=O)N[C@@H](CCC(N)=O)C(=O)N[C@@H](CC(=O)O)C(=O)N[C@@H](CCCCNC(=O)CCCCCCCCCCCCCCC(=O)O)C(=O)N[C@H](C(=O)N[C@@H](CC(N)=O)C(=O)N[C@@H](Cc1c[nH]c2ccccc12)C(=O)N[C@@H](CC(C)C)C(=O)N[C@@H](CC(C)C)C(=O)N[C@@H](C)C(=O)N[C@@H](CCC(N)=O)C(=O)N[C@@H](CCCCN)C(N)=O)C(C)C)[C@@H](C)CC
As for B2, in the assay with human GIP receptor [1], the “cAMP agonism” value worked out at 634 nM; the “cAMP agonism, EC50 (log)” value was -6 log M; the “cAMP agonism, Emax” value was determined as 13; the “cAMP antagonism” value was found to be 634 nM. Also, the “cAMP antagonism, log” value with human GIP receptor [1] is -6.2 log M. For the same molecule, in the assay with human GIP receptor [2], the IC50 was determined as 141 nM and the logIC50 is -6.9 log M. Further, in the assay with human GIP receptor [3], the half-maximal inhibitory concentration (IC50) was 47.9 nM and the logIC50 is -7.3 log M. Moreover, in the assay with human GIP receptor [4], the half-maximal inhibitory concentration (IC50) turned out to be 962 nM and the “log IC50” value is -6 log M. In addition, the “Fold change HSA (2%)/Casein (0.1%)” value with human GIP receptor [5] is 3 fold.

B3: AT181 [hGIP(5-30)NH2[D21K]-C16diacid/21] (peptide)
peptide: TFISDYSIAMDKIHQQK(C16 diacid)FVNWLLAQK-NH2
modifications: N-terminus assumed
SMILES: CC[C@H](C)[C@H](NC(=O)[C@H](CO)NC(=O)[C@H](Cc1ccc(O)cc1)NC(=O)[C@H](CC(=O)O)NC(=O)[C@H](CO)NC(=O)[C@@H](NC(=O)[C@H](Cc1ccccc1)NC(=O)[C@@H](N)[C@@H](C)O)[C@@H](C)CC)C(=O)N[C@@H](C)C(=O)N[C@@H](CCSC)C(=O)N[C@@H](CC(=O)O)C(=O)N[C@@H](CCCCN)C(=O)N[C@H](C(=O)N[C@@H](Cc1c[nH]cn1)C(=O)N[C@@H](CCC(N)=O)C(=O)N[C@@H](CCC(N)=O)C(=O)N[C@@H](CCCCNC(=O)CCCCCCCCCCCCCCC(=O)O)C(=O)N[C@@H](Cc1ccccc1)C(=O)N[C@H](C(=O)N[C@@H](CC(N)=O)C(=O)N[C@@H](Cc1c[nH]c2ccccc12)C(=O)N[C@@H](CC(C)C)C(=O)N[C@@H](CC(C)C)C(=O)N[C@@H](C)C(=O)N[C@@H](CCC(N)=O)C(=O)N[C@@H](CCCCN)C(N)=O)C(C)C)[C@@H](C)CC
For B3, in the assay with human GIP receptor [1], the “cAMP agonism” value is 2 nM; the “cAMP agonism, EC50 (log)” value was -9 log M; the “cAMP agonism, Emax” value is 9; the “cAMP antagonism” value came out at 16 nM. In the assay with human GIP receptor [1], the “cAMP antagonism, log” value is -7.8 log M. In the assay with human GIP receptor [2], this molecule returned a half-inhibitory concentration (IC50) of 550 nM and a logIC50 of -6.3 log M. Besides, in the assay with human GIP receptor [3], the IC50 is 105 nM and the logIC50 was -7 log M. Besides, in the assay with human GIP receptor [4], the IC50 was 48 nM and the “log IC50” value is -7.3 log M. For the same molecule, the “Fold change HSA (2%)/Casein (0.1%)” value with human GIP receptor [5] came to 5.2 fold.

B4: AT180 [hGIP(5-30)NH2[Q20K]-C16diacid/20] (peptide)
peptide: TFISDYSIAMDKIHQK(C16 diacid)DFVNWLLAQK-NH2
modifications: N-terminus assumed
SMILES: CC[C@H](C)[C@H](NC(=O)[C@H](CO)NC(=O)[C@H](Cc1ccc(O)cc1)NC(=O)[C@H](CC(=O)O)NC(=O)[C@H](CO)NC(=O)[C@@H](NC(=O)[C@H](Cc1ccccc1)NC(=O)[C@@H](N)[C@@H](C)O)[C@@H](C)CC)C(=O)N[C@@H](C)C(=O)N[C@@H](CCSC)C(=O)N[C@@H](CC(=O)O)C(=O)N[C@@H](CCCCN)C(=O)N[C@H](C(=O)N[C@@H](Cc1c[nH]cn1)C(=O)N[C@@H](CCC(N)=O)C(=O)N[C@@H](CCCCNC(=O)CCCCCCCCCCCCCCC(=O)O)C(=O)N[C@@H](CC(=O)O)C(=O)N[C@@H](Cc1ccccc1)C(=O)N[C@H](C(=O)N[C@@H](CC(N)=O)C(=O)N[C@@H](Cc1c[nH]c2ccccc12)C(=O)N[C@@H](CC(C)C)C(=O)N[C@@H](CC(C)C)C(=O)N[C@@H](C)C(=O)N[C@@H](CCC(N)=O)C(=O)N[C@@H](CCCCN)C(N)=O)C(C)C)[C@@H](C)CC
Consider B4, for which, in the assay with human GIP receptor [1], the “cAMP agonism, Emax” value came to 0; the “cAMP antagonism” value is 37 nM; the “cAMP antagonism, log” value was -7.4 log M. In the assay with human GIP receptor [2], this molecule came in with a concentration for half-maximal inhibition (IC50) of 1700 nM and a logIC50 of -5.8 log M. Moreover, in the assay with human GIP receptor [3], the half-inhibitory concentration (IC50) was found to be 457 nM and the logIC50 was -6.3 log M. Further, in the assay with human GIP receptor [4], the IC50 worked out at 106 nM and the “log IC50” value is -7 log M. Besides, the “Fold change HSA (2%)/Casein (0.1%)” value with human GIP receptor [5] turned out to be 3.7 fold.

B5: AT179 [hGIP(5-30)NH2[Q19K]-C16diacid/19] (peptide)
peptide: TFISDYSIAMDKIHK(C16 diacid)QDFVNWLLAQK-NH2
modifications: N-terminus assumed
SMILES: CC[C@H](C)[C@H](NC(=O)[C@H](CO)NC(=O)[C@H](Cc1ccc(O)cc1)NC(=O)[C@H](CC(=O)O)NC(=O)[C@H](CO)NC(=O)[C@@H](NC(=O)[C@H](Cc1ccccc1)NC(=O)[C@@H](N)[C@@H](C)O)[C@@H](C)CC)C(=O)N[C@@H](C)C(=O)N[C@@H](CCSC)C(=O)N[C@@H](CC(=O)O)C(=O)N[C@@H](CCCCN)C(=O)N[C@H](C(=O)N[C@@H](Cc1c[nH]cn1)C(=O)N[C@@H](CCCCNC(=O)CCCCCCCCCCCCCCC(=O)O)C(=O)N[C@@H](CCC(N)=O)C(=O)N[C@@H](CC(=O)O)C(=O)N[C@@H](Cc1ccccc1)C(=O)N[C@H](C(=O)N[C@@H](CC(N)=O)C(=O)N[C@@H](Cc1c[nH]c2ccccc12)C(=O)N[C@@H](CC(C)C)C(=O)N[C@@H](CC(C)C)C(=O)N[C@@H](C)C(=O)N[C@@H](CCC(N)=O)C(=O)N[C@@H](CCCCN)C(N)=O)C(C)C)[C@@H](C)CC
With B5, in the assay with human GIP receptor [1], the “cAMP agonism” value turned out to be 89 nM; the “cAMP agonism, EC50 (log)” value was -7 log M; the “cAMP agonism, Emax” value came to 32; the “cAMP antagonism” value was 89 nM. Also, the “cAMP antagonism, log” value with human GIP receptor [1] was -7.1 log M. In the assay with human GIP receptor [2], this molecule registered an IC50 of 38 nM and a logIC50 of -7.42 log M. In the assay with human GIP receptor [3], this molecule showed an IC50 of 10.5 nM and a logIC50 of -7.98 log M. Also, in the assay with human GIP receptor [4], the half-inhibitory concentration (IC50) turned out to be 453 nM and the “log IC50” value is -6.3 log M. Also, in the assay with human GIP receptor [5], the “Fold change HSA (2%)/Casein (0.1%)” value stood at 3.6 fold.

B6: AT183 [hGIP(5-30)NH2[V23K]-C16diacid/23] (peptide)
peptide: TFISDYSIAMDKIHQQDFK(C16 diacid)NWLLAQK-NH2
modifications: N-terminus assumed
SMILES: CC[C@H](C)[C@H](NC(=O)[C@H](CO)NC(=O)[C@H](Cc1ccc(O)cc1)NC(=O)[C@H](CC(=O)O)NC(=O)[C@H](CO)NC(=O)[C@@H](NC(=O)[C@H](Cc1ccccc1)NC(=O)[C@@H](N)[C@@H](C)O)[C@@H](C)CC)C(=O)N[C@@H](C)C(=O)N[C@@H](CCSC)C(=O)N[C@@H](CC(=O)O)C(=O)N[C@@H](CCCCN)C(=O)N[C@H](C(=O)N[C@@H](Cc1c[nH]cn1)C(=O)N[C@@H](CCC(N)=O)C(=O)N[C@@H](CCC(N)=O)C(=O)N[C@@H](CC(=O)O)C(=O)N[C@@H](Cc1ccccc1)C(=O)N[C@@H](CCCCNC(=O)CCCCCCCCCCCCCCC(=O)O)C(=O)N[C@@H](CC(N)=O)C(=O)N[C@@H](Cc1c[nH]c2ccccc12)C(=O)N[C@@H](CC(C)C)C(=O)N[C@@H](CC(C)C)C(=O)N[C@@H](C)C(=O)N[C@@H](CCC(N)=O)C(=O)N[C@@H](CCCCN)C(N)=O)[C@@H](C)CC
B6: in the assay with human GIP receptor [1], the “cAMP agonism, Emax” value was 0; the “cAMP antagonism” value worked out at 1770 nM; the “cAMP antagonism, log” value is -5.8 log M. In the assay with human GIP receptor [2], this molecule returned a half-maximal inhibitory concentration (IC50) of 1700 nM and a logIC50 of -5.8 log M. Also, in the assay with human GIP receptor [3], the IC50 was 955 nM and the logIC50 was -6 log M. Also, in the assay with human GIP receptor [4], the IC50 is 7130 nM and the “log IC50” value is -5.1 log M. The “Fold change HSA (2%)/Casein (0.1%)” value in the assay with human GIP receptor [5] stood at 1.8 fold.

One may read the IC50 as the midpoint of a concentration-inhibition curve.
